Substitutions are numbered along the chain they refer to.
T1: human DLL3 (human, UniProt Q9NYJ7 27-492, limits assumed)
T1 construct: also called hDLL3; DLL3 protein
T1 sequence: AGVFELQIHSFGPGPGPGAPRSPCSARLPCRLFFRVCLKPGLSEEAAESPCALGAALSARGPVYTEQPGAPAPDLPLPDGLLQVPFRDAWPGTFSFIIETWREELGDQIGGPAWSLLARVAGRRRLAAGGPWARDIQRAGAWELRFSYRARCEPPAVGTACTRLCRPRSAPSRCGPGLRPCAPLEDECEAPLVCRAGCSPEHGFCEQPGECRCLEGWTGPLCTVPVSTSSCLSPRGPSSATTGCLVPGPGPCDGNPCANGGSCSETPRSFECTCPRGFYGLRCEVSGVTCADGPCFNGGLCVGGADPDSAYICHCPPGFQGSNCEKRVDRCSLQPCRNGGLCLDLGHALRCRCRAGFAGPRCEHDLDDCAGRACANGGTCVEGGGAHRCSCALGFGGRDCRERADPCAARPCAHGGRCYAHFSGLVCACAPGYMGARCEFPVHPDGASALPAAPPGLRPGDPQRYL

T2: human ASCL1 (human, UniProt P50553 1-236, limits assumed)
T2 construct: Transcription factor; also called hASCL1; immobilized human ASCL1
T2 sequence (looked up): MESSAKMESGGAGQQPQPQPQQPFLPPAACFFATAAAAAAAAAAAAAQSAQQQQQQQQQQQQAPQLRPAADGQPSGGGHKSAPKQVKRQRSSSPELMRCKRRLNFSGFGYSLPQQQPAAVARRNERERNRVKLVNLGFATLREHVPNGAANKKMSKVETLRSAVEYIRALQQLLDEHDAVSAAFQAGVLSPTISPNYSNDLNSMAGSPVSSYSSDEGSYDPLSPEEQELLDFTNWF

B1: hSC16.15 (antibody, human IgG1, kappa, V domains shown)
VH: QVQLVQSGAEVKKPGASVKVSCKASGYTFTRYWIHWIRQAPGQGLEWMGYINPTTVYTEFNQNFKDRVTMTRDTSTSTVYMELSSLRSEDTAVYYCARGGSNFFDYWGQGTTVTVSS
VL: AIQLTQSPSSLSASVGDRVTITCRASENIYYNLAWYQQKPGKAPKLLIYTANSLEDGVPSRFSGSGSGTDFTLTISSLQPEDFATYFCKQAYDVPPTFGGGTKLEIKR
notes: humanized IgG1/kappa; also called humanized SC16.15
B2: SC72.96 (antibody, V domains shown)
VH: EVQLQQSGPELVKPGASVKMSCKASGYTLTAYNIHWVKQSHGKSLEWIGFINPHSGGTTYNEKFKGKATLTVNKSSSTANMELRSLTSEDSAVYYCASIYYYGSSYFDHWGQGTTLTVSS
VL: DIQMTQSPASLSASVGETVTMTCRASENIHSNLVWYQQKQGKSPQLLVYAATNLADGVPSRFSGSGSGSQFSLKIDSLQPEDFGSYLCQHFYGTPRTFGGGTKLEIK
notes: murine mAb
B3: SC72.201 (antibody, V domains shown)
VH: EVNLEESGGGLVQPGGSMKLSCVASGFTFSNYWMNWVRQSPEKGLEWVAQIRSKSDNYATHYAESVKGRFTISRDDSKSSVYLQMNNLRSEDTGIYYCRTGPDVWGTGTTVTVSS
VL: DIQMTQSPASLSVSVGETVTITCRASENIYSSLAWYQQKQGNSPQLLVYAATKLADGVPSRFSGSGSGTQYSLKINSLQSEDFGSYYCQHFWGTTWTFGGGTKLEIK
notes: murine mAb
B4: chimeric SC16.25 (antibody, human IgG1, kappa, V domains shown)
VH: QVTLKESGPGILQPSQTLSLTCSFSGFSLSTSGMGVGWIRQPSGEGLEWLTDIWWDDNKYYNPSLKSRLTISKDTSSNQVFLNITSVDTADTATYYCARRVNYYYDPYYAMDYWGQGTSVTVSS
VL: QIVLTQSPAIMSASPGEKVTMTCSASSSVSYMHWYQQKSGTSPKRWIYDSSKLASGVPARFSGSGSGTSYSLTISSMEAEDAATYYCQQWSSNPLTFGAGTKLELKR
notes: murine V regions on human IgG1/kappa; also called chimeric parent antibody of hSC16.25
B5: chimeric SC16.34 (antibody, human IgG1, kappa, V domains shown)
VH: QIQLVQSGPELKRPGETVKISCKASGYTFTNYGMNWVKQAPGKGLKWMGWINTYTGDPTYADDFKGRFAFSLETSASTAYLQINNLKNEDTATYFCARIGGNSPSDYWGQGTSLTVSS
VL: SIVMTQTPKFLLVSAGDRVTITCKASQSVSNDVAWYQQKPGQSPKLLIYYASNRYSGVPDRFTGSGYGTDFTFTISTVQAEDLAVYFCQQDYSSPWTFGGGTKLEIKR
notes: murine V regions on human IgG1/kappa; also called chimeric parent antibody of hSC16.34
B6: chimeric SC16.56 (antibody, human IgG1, kappa, V domains shown)
VH: B5 VH with R13K, G49A, D57E, Y80S, N84I, G101D, N102S, S113T
VL: B5 VL with A34V, S56T, T63A, T72S, S93T, K107R
notes: murine V regions on human IgG1/kappa; also called chimeric parent antibody of hSC16.56
B7: hSC16.13 (antibody, human IgG1, kappa, V domains shown)
VH: QITLKESGPTLVKPTQTLTLTCTFSGFSLSTSGMGVGWIRQPPGKALEWLAHIWWDDVKRYSPSLKSRLTITKDTSKNQVVLTMTNMDPVDTATYYCARIVSFDNDVVSAMDYWGQGTLVTVSS
VL: DIQMTQSPSSLSASVGDRVTITCSASSSVSYMYWYQQKPGKAPKLLIYLTSNLASGVPSRFSGSGSGTDFTLTISSLQPEDFATYYCQQWRSNPFTFGQGTKLEIKR
notes: humanized IgG1/kappa; also called humanized SC16.13
B8: SC16.148 (antibody, V domains shown)
VH: QIQLVQSGPELKKPGETVKISCKASGYTLTNYGMNWVKQAPGKGLKWMGWINTYTGEPTYADDFKGRFAFSLETSARIVYLQINNLKNEDTATYFCAKYEAHEGFVYWGQGTLVTVSA
VL: QIVLTQSPAIMSASPGEKVTMTCSASSSVSYMYWYQQKPGSSPRLLIYDTSNLASGVPVRFSGSGSGTSYSLTISRMEAEDTATYYCQEWSNNPLTFGDGTKLELK
notes: murine mAb
B9: SC72.76 (antibody, V domains shown)
VH: QVQLKESGPGLVAPSQSLSITCTVSDFSLTNYAVHWVRQSPGKGLEWLGVIWSDGNTDYNAPFISRLSISKDNSKSQVFFKMNSLQADDTAIYYCASYGDSAYWGQGTLVTVSA
VL: DIVLTQSPASLTVSLGQRATISCRASQSVRTSNYSYMHWYQQKPGQPPKLLIKYASNLESGVPARFSGSGSGTDFTLNIHPVEEEDTATYYCQHHWEIPFTFGGGTKLEIK
notes: murine mAb
B10: SC72.91 (antibody, V domains shown)
VH: QVQLQQSGPEVVKPGASVKLSCKASGYTFTTYDINWVKQRPGQGLEWIGWIYFRDGTNKYNEKFKGKATLTVDTSSSTAYMELHSLTSEDSAVYFCASVYDGYYVSGFDIMDYWGQGTSVTVSS
VL: DVVLTQTPLSLPVSLGDQASIYCRSSQSIVHSNGNTYFEWYLQKPGQSPKLLIYKVSNRLSGVPDRFSGSGSGTDFTLKISRVEAVDLGIYYCFQASHVPFTFGAGTKLELK
notes: murine mAb
B11: SC72.52 (antibody, V domains shown)
VH: QVQLQQPGSVLVRPGASVKLSCKASGYTFTSYWMHWVKQRPGQGLEWIGEIYPNSGRTNYNEKFKGKATLTVDTSSSTAYVDLSSLTSEDSAVYYCHYYDDNYGYWGQGTTLTVSS
VL: DIVITQDELSNPVTSGESVSISCRSSKSLLYKDGKTYLNWFLQRPGQSPQLLIYLMSTRASGVSDRFSGSGSGTDFTLEISRVKAEDVGVYYCQQFVEYPLTFGAGTKLELK
notes: murine mAb
B12: SC16.15 (antibody, V domains shown)
VH: QVQLQQSGAELAKPGASVKMSCKASGYTFTRYWIHWIKQRPGQGLEWIGYINPTTVYTEFNQNFKDKATLTADKSSTTASMQLSSLTSEDSAVYYCARGGSNFFDYWGQGTTLTVSS
VL: DIQMTQSPASLAASVGETVAITCRASENIYYNLAWYQQKQGKSPQLLIYTANSLEDGVPSRFSGSGSGTQYSLKINSMQPEDSATYFCKQAYDVPPTFGGGTKLEIK
notes: murine mAb
B13: SC72.94 (antibody, V domains shown)
VH: QVQLQQPGTELVKPGASVKLSCKASAYTFTSLWIHWVKQRPGQGLEWIGDINPSIGDTYYNERFKSKATLTVDKSSSTAYMQLSSLTSEDSAVYYCTTGDSWGQGTTLTVSS
VL: DIQMNQSPSSLSASLGDTITITCRASQGISIWLSWYQQKPGNIPKLLIYKASNLHTGVPPSFSGSGSGTDFTLTISSLQPEDIATYYCLQSQSYPWTFGGGTKLEIK
notes: murine mAb
B14: SC72.63 (antibody, V domains shown)
VH: EVQLLQSGPELVKPGASVKMSCKASGYTLTDYNLHWVKQSHAKSLEWIGYINPYNGVTSYNQRFKGKATLTVNKSSSTAFMEFRSLTSEDSAVYYCVSLYYGDDPFACWGQGTLVTVST
VL: DIQMTQSPASLSASVGETVTMTCRASENIYSNLAWYQQKQGKSPQLLVYAATNLADDVPSRFSGSGSGTQFSLKINSLQPEDFGIYYCHHFYGSPLTFGAGTKLELK
notes: murine mAb
B15: SC72.165 (antibody, V domains shown)
VH: QVQLQQPGAELVRPGASVRLSCKASGYSFTSYWINWVKQRPGQGLEWIGNIYPGSSNTNYNEKFKRKATLTVDTSSSTAYMQLSSLTSDDSAVYYCARSESDYWGQGTTLTVSS
VL: DIVLTQSPASLAVSPGQRATISCKASQSVGYDGDTYLSWYQQKPGQPPKLLIYGVSILESGIPARFSGSGSGTDFTLNIHPVEEEDAATYYCQQSSEDPYTFGGGTKLEIK
notes: murine mAb
B16: SC72.181 (antibody, V domains shown)
VH: B15 VH with L11V, R13K, S28T, N57S, R66S, A97S
VL: B15 VL with P15L, G30D, Y31D, D34G, L37M, S56F, S96N
notes: murine mAb
B17: SC72.216 (antibody, V domains shown)
VH: QIQLVQSGPELRKPGETVKISCKASGYTFTNYPMHWVKQAPGKGFKWMGWINTYSGVPSYADDFKGRFAFSLETSASSAYLQINNLKNEDMATYFCARHNYNSYDVFAYWGQGTLVTVSA
VL: B15 VL with L4V, P15L, G30D, T35S, L37M, S38N, V55A, I57N, S96N
notes: murine mAb
B18: SC72.93 (antibody, V domains shown)
VH: QVQLQQSGAELVRPGASVTLSCKASGYIFIDYEMHWVKQTPVHGLEWIGSIDPETGDTVYNQKFKGKATLTADKSSSTAYMELRSLTSEDSAVYYCSRGGLDYWGQGTTLTVSS
VL: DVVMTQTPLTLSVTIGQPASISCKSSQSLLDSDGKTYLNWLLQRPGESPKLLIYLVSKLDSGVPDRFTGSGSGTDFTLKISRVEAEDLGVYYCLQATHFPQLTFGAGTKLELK
notes: murine mAb; same VL as SC72.2
B19: SC72.132 (antibody, V domains shown)
VH: EVKLVESEGGLVQPGSSMKLSCTASGFTFSDYYMAWVRQVPEKGLEWVATIDYDGSNTYYLDSLKSRFIISRDNAKNILYLQMSSLKSEDTATYYCARDGGYDEDYFDYWGQGTTLTVSS
VL: DIVMSQSPSSLAVSVGEKVTLSCKSSQTLLYSSNQQNYLAWYQQKPGQSPKLLIYWASTRESGVPDRFTGSGSGTDFTLTISSVKAEDLAVYYCHQYYTYPFTFGSGTKLEIK
notes: murine mAb
B20: SC72.28 (antibody, V domains shown)
VH: DVQLQQSGAELVRPGALVKLSCKASGFNIKDYLIHWVKQRPEQGLEWIGCIDPENGNTIYDPRFQGKAKITSDTSSTTAYLRLTSLTSEDTAVYYCGRGGLDYWGQGTTLTVSS
VL: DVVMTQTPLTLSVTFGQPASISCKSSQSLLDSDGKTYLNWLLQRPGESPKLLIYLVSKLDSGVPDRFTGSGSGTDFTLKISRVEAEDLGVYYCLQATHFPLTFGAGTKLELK
notes: murine mAb

How the values were obtained:
human DLL3 [1] = molecular target: T1, human DLL3; experiment: surface plasmon resonance
human ASCL1 = molecular target: T2, human ASCL1; experiment: screen on immobilized hASCL1 or h293-hASCL1 cells
human DLL3 [2] = molecular target: T1, human DLL3; experiment: screen on immobilized hDLL3 or h293-hDLL3 cells
In short: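 After 10 days in culture, supernatants of single-cell hybridomas from human DLL3-immunized mice were tested on cells and by solid-phase ELISA. A flow-cytometry signal above the control level counted as binding. The ELISA used DLL3-His coated at 0.5 μg/ml, HRP anti-mouse IgG and TMB, with reading at OD 450.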

binding result (human ASCL1)	further results	Binder
	binding result (human DLL3 [1]): binds	B1
binds		B2
binds		B3
	binding result (human DLL3 [1]): binds	B4
	binding result (human DLL3 [1]): binds	B5
	binding result (human DLL3 [1]): binds	B6
	binding result (human DLL3 [1]): binds	B7
	binding result (human DLL3 [2]): binds	B8
binds		B9
binds		B10
binds		B11
	binding result (human DLL3 [2]): binds	B12
binds		B13
binds		B14
binds		B15
binds		B16
binds		B17
binds		B18
binds		B19
binds		B20

Reference: patent US20190201542A1 (AbbVie / Abbott, published 2019)
